Measured values taken from US20240076386A1 (Pfizer, published 2024).

T1: human E-selectin, cell-surface expressed (human, UniProt P16581 22-610)
T1 construct: also called CHO-human E-selectin cells; human CHO-E
T1 sequence: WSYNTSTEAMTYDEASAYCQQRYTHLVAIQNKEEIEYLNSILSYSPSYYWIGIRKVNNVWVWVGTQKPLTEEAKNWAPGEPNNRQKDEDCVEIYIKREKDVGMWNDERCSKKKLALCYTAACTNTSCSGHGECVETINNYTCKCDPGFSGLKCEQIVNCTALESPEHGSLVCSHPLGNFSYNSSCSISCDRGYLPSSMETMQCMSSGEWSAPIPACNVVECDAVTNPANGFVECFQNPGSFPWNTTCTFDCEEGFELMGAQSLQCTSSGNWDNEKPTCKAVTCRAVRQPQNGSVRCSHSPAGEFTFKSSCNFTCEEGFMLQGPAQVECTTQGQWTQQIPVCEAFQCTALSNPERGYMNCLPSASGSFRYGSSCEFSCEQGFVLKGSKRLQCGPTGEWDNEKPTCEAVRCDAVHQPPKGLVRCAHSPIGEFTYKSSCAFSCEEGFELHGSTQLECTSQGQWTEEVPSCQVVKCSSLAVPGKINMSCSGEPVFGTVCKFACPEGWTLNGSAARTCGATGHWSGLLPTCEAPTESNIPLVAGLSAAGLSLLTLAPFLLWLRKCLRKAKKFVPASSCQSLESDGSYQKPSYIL

T2: human E-selectin coated on the plate of the competition binding ELISA (human, UniProt P16581 22-556, limits assumed)
T2 sequence (looked up): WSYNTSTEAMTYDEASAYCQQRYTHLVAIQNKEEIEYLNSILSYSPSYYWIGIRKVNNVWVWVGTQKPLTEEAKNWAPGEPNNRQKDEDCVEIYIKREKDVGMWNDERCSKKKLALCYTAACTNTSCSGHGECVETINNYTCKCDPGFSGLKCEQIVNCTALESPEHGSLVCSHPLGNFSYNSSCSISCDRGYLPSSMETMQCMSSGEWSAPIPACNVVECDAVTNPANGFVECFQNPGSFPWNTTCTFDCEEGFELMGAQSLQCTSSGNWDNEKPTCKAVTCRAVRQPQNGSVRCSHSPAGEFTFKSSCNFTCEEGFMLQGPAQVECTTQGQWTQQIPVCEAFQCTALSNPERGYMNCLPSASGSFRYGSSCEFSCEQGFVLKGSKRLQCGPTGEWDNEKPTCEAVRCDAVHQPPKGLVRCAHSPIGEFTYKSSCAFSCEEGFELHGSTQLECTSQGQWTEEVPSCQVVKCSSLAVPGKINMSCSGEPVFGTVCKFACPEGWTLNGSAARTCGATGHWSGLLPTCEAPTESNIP


Experiments:
[1] = molecular target: T1, human E-selectin, cell-surface expressed; assay: flow cytometry, CHO cells
Method: CHO cell lines expressing human E-selectin were detached from confluent flasks using enzyme-free Cell Dissociation Buffer (GIBCO, 13151014). Growth media was immediately added to the detached cells, then centrifuged at 300×g for 5 minutes at room temperature to pellet the cells. The cells were then resuspended in cold CHO buffer consisting of phosphate buffered saline (PBS), pH 7.4 containing bovine serum albumin (BSA; Sigma-Aldrich, A³⁰⁵⁹) at final concentration of 1%, calcium chloride at final concentration of 1 mM, and sodium azide at a final concentration of 0.1%.
Binding studies with CHO cells were performed in duplicate using two rows of a 96-well round bottom plate, whereas, binding studies with primary endothelial cells were performed in a single row of a 96-well V-bottom plate. The plates were centrifuged at 300×g for 2 minutes at 4° C. and the cells were resuspended and blocked by incubation in the CHO buffer for 10 minutes on wet ice. After incubation, the cells were centrifuged at 300×g for 2 minutes at 4° C. to remove the buffer. […] After incubation with the antibody, the cells were washed three times by centrifugation at 300×g for 1 minute at 4° C. and resuspended in cold CHO buffer. The washed cells were resuspended and incubated with 100 μL of 1:1000 dilution of AlexaFluor647-conjugated goat anti-human F(ab′)₂ Fragment (Fcγ fragment specific antibody, [Jackson Innnnunoresearch, 109-606-170] for 45 minutes (CHO cells) or 30 minutes (endothelial cells) on wet ice. The cells were washed three or four times prior to resuspension in CHO buffer for flow cytometric analysis. A Becton Dickinson LSRFortessa instrument using 640 nanometer laser line was used to acquire cell fluorescence data. Geometric mean fluorescence of cells was analyzed by FlowJo software package (FlowJo, LLC) and plotted against antibody concentration. The estimated EC₅₀ values were calculated using nonlinear regression analysis in the Prism suite (GraphPad, version 8).

[2] = molecular target: T2, human E-selectin coated on the plate of …; assay: competition ELISA (Biotin-164 competitive ELISA) on plate-coated human E-selectin; competitor: biotinylated antibody 0164, OD450; forced degradation samples T0, T2, T4 weeks at 40 C in Tris, His or Glu buffer
Method: To additionally asses stability of the forced degradation samples, the activity of the stressed samples was evaluated in a competition binding ELISA. […] The human E-selectin was stored in PBS with Ca/Mg at 500 μg/mL and was diluted with PBS with Ca/Mg to a concentration of 1 μg/mL. This was added to a 384 well MaxiSorp plate, sealed and incubated at 4° C. with gentle shaking overnight. The next day the reagents in each well were removed, followed by addition of 50 μL of blocking buffer (1% BSA in PBS with Ca/Mg) to each well. The wells were sealed and incubated at room temperature for about 1 hour with gentle shaking.
Next, the wash plate was blocked with 1% BSA with PBST (0.05% Tween) on a […] for 3 cycles using 80 μL for each wash. The plate was tapped on a paper towel to drain. […] The wash step was repeated with 3 cycles of 2 washes. Then, dilute Streptavidin-HRP (˜1/7500 diluted in blocking buffer) was added to each well and the plate was incubated at room temperature with gentle shaking ˜40 minutes to 1 hour. The wash step was again repeated with 3 cycles of 2 washes, tapped dry and followed by the addition of 25 μL of TMB substrate (one component HRP microwell substrate). This was followed by the addition of 25 μL of 0.18 M sulfuric acid to stop the reaction when the color reached saturation (determined by observing the color development). The OD450 measurement of the plate was then read on the Envision plate reader, and the data was analyzed with GraphPad, Prism7.

Row | Binder | EC50 [1] [nM] | IC50 (read off the curve) [2] [nM]
1 | optimized anti-E-selectin antibody 1282 (antibody, human IgG1, kappa, V domains shown, effector-null human IgG1, kappa) VH: EVQLVESGGGLVQPGGSLRLSCAASGYAIRSAYMHWVRQAPGKGLEWVARIDPANGNTIYVDSVEGRFTISADNAKNSAYLQMNSLRAEDTAVYYCAMDLYSTSEYWGQGTLVTVSS VL: DIQMTQSPSSLSASVGDRVTITCKTSQNIERYLNWYQQKPGKAPKLLIYAASSLQSGVPSRFSGSGSGTDFTLTISSLQPEDFATYFCLQDNAWPLTFGQGTKVEIKR | 0.85 | ~10
2 | optimized anti-E-selectin antibody 1284 (antibody, human IgG1, kappa, V domains shown, effector-null human IgG1, kappa) VH: EVQLVESGGGLVQPGGSLRLSCAASGYAIRSAYMHWVRQAPGKGLEWVARIDPANGNTIYVESVEGRFTISADNAKNSAYLQMNSLRAEDTAVYYCAMDLYSTSEYWGQGTLVTVSS VL: DIQMTQSPSSLSASVGDRVTITCKTSQNIERYLNWYQQKPGKAPKLLIYAASSLQSGVPSRFSGSGSGTDFTLTISSLQPEDFATYFCLQDNAWPLTFGQGTKVEIKR | 0.64 | ~10
3 | optimized anti-E-selectin antibody 1444 (antibody, human IgG1, kappa, V domains shown, effector-null human IgG1, kappa) VH: EVQLVESGGGLVQPGGSLRLSCAASGYAIRSAYMHWVRQAPGKGLEWVARIDPANGNTIYVDSVTGRFTISADNAKNSAYLQMNSLRAEDTAVYYCAMDLYSTSEYWGQGTLVTVSS VL: DIQMTQSPSSLSASVGDRVTITCKTSQNIERYLNWYQQKPGKAPKLLIYAASSLQSGVPSRFSGSGSGTDFTLTISSLQPEDFATYFCLQDNAWPLTFGQGTKVEIKR | 0.66 | ~10

The next lines start with the values.

Row | EC50 [1] [nM] | IC50 (read off the curve) [2] [nM] | Binder
4 | 0.71 | – | humanized anti-E-selectin antibody 0841 (antibody, human IgG1, kappa, V domains shown, effector-null human IgG1, kappa) VH: EVQLVESGGGLVQPGGSLRLSCAASGYNIRSSYMHWVRQAPGKGLEWVARIDPANGNTIYAEKFKIRFTISADNAKNSAYLQMNSLRAEDTAVYYCAMDLYSTSEYWGQGTLVTVSS VL: DIQMTQSPSSLSASVGDRVTITCKTSQNINRYLNWYQQKPGKAPKLLIYNANSLQTGVPSRFSGSGSGTDFTLTISSLQPEDFATYFCLQDNSWPLTFGQGTKVEIKR
5 | 0.75 | ~9 | optimized anti-E-selectin antibody 1448 (antibody, human IgG1, kappa, V domains shown, effector-null human IgG1, kappa) VH: EVQLVESGGGLVQPGGSLRLSCAASGYAIRSAYMHWVRQAPGKGLEWVARIDPANGNTIYVDSVKERFTISADNAKNSAYLQMNSLRAEDTAVYYCAMDLYSTSEYWGQGTLVTVSS VL: DIQMTQSPSSLSASVGDRVTITCKTSQNIERYLNWYQQKPGKAPKLLIYAASSLQSGVPSRFSGSGSGTDFTLTISSLQPEDFATYFCLQDNAWPLTFGQGTKVEIKR
